According to patent CN112980851A:

Biological target: CD20 (UniProt P11836)
Assay: cell-based or functional assay

Chain of UniProt P11836 (P11836 whole entry): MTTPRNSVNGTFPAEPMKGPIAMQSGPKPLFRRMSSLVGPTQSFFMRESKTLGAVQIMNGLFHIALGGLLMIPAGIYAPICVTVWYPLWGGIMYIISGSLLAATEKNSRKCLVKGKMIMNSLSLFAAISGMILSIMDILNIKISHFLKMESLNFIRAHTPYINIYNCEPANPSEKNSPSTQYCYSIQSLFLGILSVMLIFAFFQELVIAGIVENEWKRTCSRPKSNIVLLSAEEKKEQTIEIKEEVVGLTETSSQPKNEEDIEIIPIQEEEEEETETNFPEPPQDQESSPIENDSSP

With Rituximab (antibody) the ADCC on Raji cells with NK92MI-CD16a effector cells (LDH release), EC50(ng/mL) was 0.607 ng/mL and the CDC on Raji cells with human serum complement (LDH release), EC50(ng/mL) was 210 ng/mL.
